Experimental data as given in paper PMC6366860.

Legend:
[1] = biological target: murine α-cardiac myosin (filaments) (mouse) (UniProt Q02566); experiment: co-sedimentation
[2] = biological target: F-actin from rabbit skeletal muscle (rabbit) (UniProt P68135); experiment: co-sedimentation

cosedimentation relative to human C0-C2 [1]	Kd [2]	stoichiometry N (mol C0-C2/mol actin) [2]	Substance
162%			mouse short form C0-C2, N-terminal tagged (mSF2), lacking the 8 amino acid NTE (domain or fragment)
60%	7.9 µM	1	wild-type mouse cMyBP-C C0-C2 (with the N-terminal extension, NTE) (domain or fragment)
